What is called Kd is a measure of binding affinity in units of concentration. Low values mean tighter binding, high ones weaker binding.

The values that follow come from publication PMC6748948 (2019).

Assay [1] has as its target Peptide P3 (BMP9 peptide mimetic designed from the type I receptor binding site) (UniProt Q9UK05 320-429). In words: SPR. Background: SPR reads the build-up and loss of mass on a sensor chip optically.
The target of assay [2] is Peptide P3r (randomly shuffled amino acid sequence of peptide P3). In words: SPR.

B1: ALK2-Fc (activin receptor like kinase 2, Fc fusion) (Fc fusion)
chain: MEDEKPKVNPKLYMCVCEGLSCGNEDHCEGQQCFSSLSINDGFHVYQKGCFQVYEQGKMTCKTPPSPGQAVECCQGDWCNRNITAQLPTKGKSFPGTQNFHLE
On to B1, for which the figures for the Kd in assay [1] and in assay [2] were 6.7 mM and 9.42 mM, respectively.

B2: ALK3-Fc (activin receptor like kinase 3, Fc fusion) (Fc fusion)
chain: QNLDSMLHGTGMKSDSDQKKSENGVTLAPEDTLPFLKCYCSGHCPDDAINNTCITNGHCFAIIEEDDQGETTLASGCMKYEGSDFQCKDSPKAQLRRTIECCRTNLCNQYLQPTLPPVVIGPFFDGSIR
As for B2, the dissociation constant Kd turned out to be 5.8 mM in assay [1] and 4.3 mM in assay [2].
